Experimental data published in patent publication US20220306702.

B1: NLeE from Shigella (Shigella NleE) (protein)
chain: GSMRKKRRQRRRSIEIKMISPIKNIKNVFPINTANTEYIVRNIYPRVEHGYFNESPNIYDKKYISGITRSMAQLKIEEFINEKSRRLNYMKTMYSPCPEDFQPISRDEASTPEGSWLTVISGKRPMGQFSVDSLYHPDLHALCELPEISCKIFPKENSDFLYIIVVFRNDSPQGELRANRFIELYDIKREIMQVLRDESPELKSIKSEIIIAREMGELFSYASEEIDSYIKQMNDRLSQIKARMPVTGSRS
B2: wild-type NleE (EPEC NleE) (protein)
chain: MINPVTNTQGVSPINTKYAEHVVKNIYPEIKHDYFNESPNIYDKKYISGITRGVAELKQEEFVNEKARRFSYMKTMYSVCPEAFEPISRNEASTPEGSWLTVISGKRPMGQFSVDSLYNPDLHALCELPDICCKIFPKENNDFLYIVVVYRNDSPLGEQRANRFIELYNIKRDIMQELNYELPELKAVKSEMIIAREMGEIFSYMPGEIDSYMKYINNKLSKIE

Assays:
[1] = molecular target: GST-TAB2 protein substrate [GST: P08515]
[2] = molecular target: 64 other human C4 ZF containing proteins

Protein	methylase activity (MTase glo assay) [1]	modification by NleE (cysteine methylation assay) [2]
B1	the Shigella NleE showed methylase activity at levels comparable to that seen for the EPEC NleE	–
B2	–	But few of them were modified by NleE
